How the values were obtained:
purified protein [1] = substrate: C[C@H](CCC(=O)O)[C@H]1CC[C@H]2[C@@H]3CC[C@@H]4C[C@H](O)CC[C@]4(C)[C@H]3C[C@H](O)[C@]12C; assay: purified protein; details: oxidation, 10 mM MOPS pH 7.0, 37 °C
purified protein [2] = substrate: C[C@H](CCC(=O)O)[C@H]1CC[C@H]2[C@@H]3CC[C@@H]4CC(=O)CC[C@]4(C)[C@H]3C[C@H](O)[C@]12C; assay: purified protein; details: reduction, 10 mM MOPS pH 7.0, 37 °C

B1: Rumgna_02133 (Mediterraneibacter gnavus ATCC 29149) (protein)
chain: MFMMLKNKVAIVTGGTRGIGFAVVKKFIENGAAVSLWGSRQETVDQALEQLKELYPDAKISGKYPSLKDTAQVTAMINQVKEEFGAVDILVNNAGISQSTSFYNYQPEEFQKIVDLNVTAVFNCSQAAAKIMKEQGGGVILNTSSMVSIYGQPSGCGYPASKFAVNGLTKSLARELGCDNIRVNAVAPGITRTDMVAALPEAVIKPLIATIPLGRVGEPEDIANAFLFLASDMASYVTGEILSVDGAARS
B1 was tested, and the Km (purified protein [1]; cofactor NADP+) was 369 ± 30 µM and the kcat (purified protein [1]; cofactor NADP+) was 1.66 ± 0.0333 s⁻¹.

B2: Elen_0690 (Eggerthella lenta DSM 2243) (protein)
chain: MGIYVITGATSGIGAKTAEILRERGHEVVNIDLNGGDINANLATKEGRAGAIAELHERFPEGIDAMICNAGVSGGKVPISLIISLNYFGATEMARGVFDLLEKKGGSCVVTSSNSIAQGAARMDVAGMLNNHADEDRILELVKDVDPAIGHVYYASTKYALARWVRRMSPDWGSRGVRLNAIAPGNVRTAMTANMLPEQRAAMEAIPVPTHFGEEPLMDPVEIANAMAFIASPEASGINGVVLFVDGGTDALLNSEKVY
B2 was tested, and the Km (purified protein [1]; cofactor NAD+) was 1280 ± 88 µM and the kcat (purified protein [1]; cofactor NAD+) was 4.85 ± 0.117 s⁻¹.

B3: Rumgna_00694 (Mediterraneibacter gnavus ATCC 29149) (protein)
chain: MNFGGFIMGRFDEKIMLVTGATSGIGRAVAIRAAKEGATVVAVGRNEERGAAVVAAMEEAGGKGEFMKCDVSNKDAVKALFAEIQEKYGKLDVAVNNAGIVGASKTVEELEDDDWFQVIDANLNSCFFCCREEVKLMQPSGGAIVNVSSVAGMRGFPSAAAYVASKHAVSGLTKAVAVDYATKGITCNAICPAGTDTPLTERSSADIKTRMAEIAAQGKDPMEWLKNSMLSGKTETLQKKNATPEEQAATILYFASDEARHITGSIVASDGGFTTY
Protein B3 has a Km (purified protein [2]; cofactor NADPH) of 56.0 ± 5.6 µM and a kcat (purified protein [2]; cofactor NADPH) of 157 ± 4.53 s⁻¹.

B4: Elen_0198 (Eggerthella lenta DSM 2243) (protein)
chain: MYDDLKGKTVVVTGSSKGLGAAMARRFGAEGMNVVANYRSDEEGARETVRAIEEAGGAAAAVQADVSKNECVDALFDAAMFSFGGVDIWVNNAGIEVASPSDRKSIEEWQRVIDVNLTGVFAGCRRAIDHFLDRKMPGVIINLSSVHEIIPWPHFADYAASKAGVGMLTKTLALEYADRGIRVNAIAPGAMNTPINAEKFADPEARAATERLIPMGYVGAPEDVAAAAAWLASDQASYVTGTTLFVDGGMTLYPGFQFGQG
For B4, the Km (purified protein [2]; cofactor NADH) was 2660 ± 539 µM and the kcat (purified protein [2]; cofactor NADH) was 9.73 ± 0.583 s⁻¹.

B5: Elen_1325 (Eggerthella lenta DSM 2243) (protein)
chain: MSEARHNPVLAGQTAVITGGASGIGKSIVQRFLEAGASCLAADLNEEALAALKQELAEYGDKLDVVKVDVSNRDDVEGMVDRAVQTFGQMDIIVNNAGIMDNLLPIAEMDDDVWERLMKVNLNSVMYGTRKAVRYFMERGEGGVIINTASLSGLCAGRGGCAYTASKFAVVGLTKNVAFMYADTGIRCNAICPGNTQTNIGVGMRQPSERGMAKATTGYAGATRSGTPEEISAAAAFLASDQAGFINGETLTIDGGWSAY
For B5, the Km (purified protein [2]; cofactor NADH) was 2630 ± 365 µM and the kcat (purified protein [2]; cofactor NADH) was 29.2 ± 1.1 s⁻¹.

Reference: publication PMC4543561
